Measured values published in patent US20250145711A1 (Janssen / Centocor, published 2025).
Residue numbers refer to the chain shown, from its start.

How the values were obtained:
[1] = target: T1, CD3 on primary human pan T cells (human, UniProt P07766 23-207); experiment: flow cytometry, pan T-cells
T1 construct: on cells it stands in the TCR/CD3 complex; also called Pan T-cells (CD3-positive); endogenous CD3
Method: ELISA assays for binding to recombinant CD3 (TRCW5, SEQ ID NO: 39) were performed as above. Cell binding was performed using primary human T cell and Jurkat cells by flow cytometry. Briefly, E. coli expressed anti CD3 ScFv supernatants, either at room temperature, or 55° C., 60° C. or 65° C. heat treated samples.
Pan T-cells (CD3-positive) and Jurkat-CD3-negative cells were prepared by staining Jurkat-CD3-negative cells with CFSE while keeping pan T-cells unstained. Jurkat-CD3-negative cell suspensions were resuspended at 20 million cells per each 50 mL conical tube. Cells were harvested by centrifugation at 400×g for 5 minutes and resuspended in DPBS followed by washing 2× in DPBS. Cells were stained with 1:25,000 dilution for a final dye concentration of 0.02 uM CFSE (2 uL of staining solution to 50 mL of cell suspension). Cells were incubated for 10 minutes at room temperature and centrifuged for 5 minutes at 400×g. After removal of supernatant, 3 mL of HI-FBS were added to the cell pellet, mixed and centrifuged for 5 min at 400×g. Supernatant was removed and cells were resuspended in BD stain buffer at 2×10\hat{ }6 cells/mL and incubated on ice or 4 C protected from light. Human pan T cells were thawed at 37 C and transferred gently into a conical tube containing 15 mL of warm or RT culture media (RPMI+10% FBS). […] Cells were harvested by centrifugation at 400×g for 5 min and resuspended in culture media (RPMI+10% HI-FBS). Pan T-cells (without staining) were prepared at 2×10\hat{ }6 cells/mL in flow staining buffer. Equal volumes of CFSE stained Jurkat-CD3-negative cells and unstained T-cells (CD3-positive) cells were mixed and plated 50 uL/well into assay plates. 50 uL/well neat bacterial supernatant samples and control sample (CD3W36 ScFv) were added to each well and plates were incubated 1 hr at 4 C or. Cells were harvested by centrifugation at 400×g for 4 min and 150 uL staining buffer were added to all wells, followed by centrifugation at 400×g for 4 min to pellet cells. To each well, 150 uL staining buffer were added followed by centrifugation at 400×g for 4 minutes to pellet cells.

[2] = target: T2, TRCW5 antigen (CD3δε-Fc-Avi) (biotinylated (site not stated)); experiment: ELISA after heat
T2 construct: also called recombinant CD3
T2 sequence (chain, as listed by the source mutant limits assumed): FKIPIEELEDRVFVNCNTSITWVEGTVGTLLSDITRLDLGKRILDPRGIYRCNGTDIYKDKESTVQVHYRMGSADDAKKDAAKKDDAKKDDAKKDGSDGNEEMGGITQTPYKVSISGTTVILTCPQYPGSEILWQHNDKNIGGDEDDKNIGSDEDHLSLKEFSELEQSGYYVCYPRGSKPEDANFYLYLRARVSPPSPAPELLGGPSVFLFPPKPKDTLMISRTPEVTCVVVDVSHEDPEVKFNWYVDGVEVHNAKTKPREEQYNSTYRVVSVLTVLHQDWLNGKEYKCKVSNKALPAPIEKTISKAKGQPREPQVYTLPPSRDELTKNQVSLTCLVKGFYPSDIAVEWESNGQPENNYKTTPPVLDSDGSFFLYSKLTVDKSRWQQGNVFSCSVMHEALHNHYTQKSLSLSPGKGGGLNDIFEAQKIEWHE

T1 sequence (P07766 23-207 limits assumed): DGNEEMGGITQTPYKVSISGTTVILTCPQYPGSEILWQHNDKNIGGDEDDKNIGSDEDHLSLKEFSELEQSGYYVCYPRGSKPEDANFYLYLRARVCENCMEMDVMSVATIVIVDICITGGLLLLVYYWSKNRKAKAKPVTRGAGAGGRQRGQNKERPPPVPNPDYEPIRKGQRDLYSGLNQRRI

B1: CD3B2073 (scFv)
scFv: QVQLVQSGAEVKKPGSSVKVSCKASGYTFTRSTMHWVRQAPGQGLEWMGYINPSSAYTNYNQKFQGRVTLTADKSTSTAYMELSSLRSEDTAVYYCASPQVHYDYNGFPYWGQGTLVTVSSGGSEGKSSGSGSESKSTGGSEIVLTQSPATLSASPGERVTLSCSASSSVSYMNWYQQKPGQAPRRWIYDSSKLASGVPARFSGSGSGRDYTLTISSLEPEDFAVYYCQQWSRNPPTFGGGTKVEIK
- % Binding retained on T-cells, 55° C. [1]: 0.993 fraction
- % Binding retained on T-cells, 60° C. [1]: 1.1 fraction
- % Binding retained on T-cells, 65° C. [1]: 0.348 fraction
- % Binding retained on T-cells, RT [1]: 1 fraction
- % Retained 55° C. [2]: 113%
- % Retained 60° C. [2]: 110%
- % Retained 65° C. [2]: 27%

B2: CD3B2077 (scFv)
scFv: B1 scFv with M48I, N61A, Q182T
- % Binding retained on T-cells, 55° C. [1]: 1.03 fraction
- % Binding retained on T-cells, 60° C. [1]: 1.1 fraction
- % Binding retained on T-cells, 65° C. [1]: 0.307 fraction
- % Binding retained on T-cells, RT [1]: 1 fraction
- % Retained 55° C. [2]: 106%
- % Retained 60° C. [2]: 107%
- % Retained 65° C. [2]: 22%

B3: CD3B2079 (scFv)
scFv: B1 scFv with M48I, N61A, Q182T, W187L
- % Binding retained on T-cells, 55° C. [1]: 1.06 fraction
- % Binding retained on T-cells, 60° C. [1]: 0.979 fraction
- % Binding retained on T-cells, 65° C. [1]: 0.116 fraction
- % Binding retained on T-cells, RT [1]: 1 fraction
- % Retained 55° C. [2]: 111%
- % Retained 60° C. [2]: 92%
- % Retained 65° C. [2]: 2%

B4: CD3B2086 (scFv)
scFv: B1 scFv with N61A, Q182T, A183S, W187L
- % Binding retained on T-cells, 55° C. [1]: 1.01 fraction
- % Binding retained on T-cells, 60° C. [1]: 1.12 fraction
- % Binding retained on T-cells, 65° C. [1]: 0.0404 fraction
- % Binding retained on T-cells, RT [1]: 1 fraction
- % Retained 55° C. [2]: 104%
- % Retained 60° C. [2]: 96%
- % Retained 65° C. [2]: 5%

B5: CD3B2081 (scFv)
scFv: B1 scFv with M48I, N61A
- % Binding retained on T-cells, 55° C. [1]: 1.04 fraction
- % Binding retained on T-cells, 60° C. [1]: 1.2 fraction
- % Binding retained on T-cells, 65° C. [1]: 0.102 fraction
- % Binding retained on T-cells, RT [1]: 1 fraction
- % Retained 55° C. [2]: 112%
- % Retained 60° C. [2]: 114%
- % Retained 65° C. [2]: 38%

B6: CD3B2082 (scFv)
scFv: B1 scFv with N61A, Q182T, A183S
- % Binding retained on T-cells, 55° C. [1]: 1.11 fraction
- % Binding retained on T-cells, 60° C. [1]: 0.682 fraction
- % Binding retained on T-cells, 65° C. [1]: 0.276 fraction
- % Binding retained on T-cells, RT [1]: 1 fraction
- % Retained 55° C. [2]: 114%
- % Retained 60° C. [2]: 116%
- % Retained 65° C. [2]: 9%

B7: CD3B2080 (scFv)
scFv: B1 scFv with M48I, N61A, A183S
- % Binding retained on T-cells, 55° C. [1]: 1.07 fraction
- % Binding retained on T-cells, 60° C. [1]: 1.13 fraction
- % Binding retained on T-cells, 65° C. [1]: 0.0573 fraction
- % Binding retained on T-cells, RT [1]: 1 fraction
- % Retained 55° C. [2]: 109%
- % Retained 60° C. [2]: 108%
- % Retained 65° C. [2]: 17%

B8: CD3B2078 (scFv)
scFv: B1 scFv with M48I, N61A, Q182T, A183S, W187L
- % Binding retained on T-cells, 55° C. [1]: 1.01 fraction
- % Binding retained on T-cells, 60° C. [1]: 0.762 fraction
- % Binding retained on T-cells, 65° C. [1]: 0.0574 fraction
- % Binding retained on T-cells, RT [1]: 1 fraction
- % Retained 55° C. [2]: 107%
- % Retained 60° C. [2]: 88%
- % Retained 65° C. [2]: 2%
